Results published in PMC6450106.

Molecular target: CAP256 gp140-FL-IP (soluble Env) (HIV-1 (CAP256 SU, subtype C))
Assay: native gel or EMSA; NativePAGE Novex 3 to 12% bis-Tris gels, Coomassie stain or anti-gp120 blot, molecular weight against NativeMark standard; protein after GNL affinity and SEC (Superdex 200 HiLoad 16/600)

Question: With “CAP256 gp140-FL-IP (soluble Env) (domain or fragment)” as the substance, how does the stoichiometry N read?
Answer: 3
